# According to publication PMC9356269, “A purified energy-converting hydrogenase from Thermoanaerobacter kivui demonstrates coupled H^+-translocation and reduction in vitro” (The Journal of Biological Chemistry, 2022):
# B1: ferredoxin (Fd) isolated from Clostridium pasteurianum (natural protein)
# chain: MAYKIADSCVSCGACASECPVNAISQGDSIFVIDADTCIDCGNCANVCPVGAPVQE
# Columns and labels:
# [1] = molecular target: T1, Ech2 complex (energy-converting hydrogenase Ech2) (Thermoanaerobacter kivui, UniProt A0A097ATF1+A0A097ATH3+A0A097ATI1); assay: Fd2-:H+ oxidoreductase activity, H2 by gas chromatography; format: biochemical; settings: read-out: 50% inhibition
# T1 construct: gene ech2A1; eight-subunit complex from T. kivui membranes (DDM), plasmid-encoded Ech2C with C-terminal 10x His tag, other subunits native; predicted monomer 248 kDa, active bands ~450 and ~520 kDa (dimer); with Energy-converting hydrogenase Ech2 subunit Ech2C; Energy-converting hydrogenase Ech2 subunit Ech2D; Energy-converting hydrogenase Ech2 subunit Ech2E; Energy-converting hydrogenase Ech2 subunit Ech2F; HycB2 (4Fe-4S ferredoxin-type subunit)
# [2] = molecular target: Ech2 complex (energy-converting hydrogenase 2) of T. kivui, His-tagged on Ech2C (Thermoanaerobacter kivui); assay: native gel or EMSA; purified Ech2 on nondenaturing PAGE with size standards, Coomassie stain and in-gel hydrogenase activity assay; bands of about 230, 450 and 520 kDa, only the 450 and 520 kDa bands active
# [3] = molecular target: Ech2 complex (energy-converting hydrogenase 2) of T. kivui, His-tagged on Ech2C (Thermoanaerobacter kivui)
molecule,measurement,setting,value
C(=NC1CCCCC1)=NC1CCCCC1 [DCCD],IC50,[1],9.9 ± 0.4 µM
"Ech2 complex (energy-converting hydrogenase 2) of T. kivui, His-tagged on Ech2C, A0A097ATI1 1-625; A0A097ATF1 1-380; A0A097ATH3 1-311; A0A097ATJ2 1-141; A0A097ATJ6 1-120; A0A097ATH9 1-364; A0A097ATH4 1-156; A0A097ATH8 1-132",stoichiometry N,[2],2
B1,Km for Fd of the H2:Fd oxidoreductase reaction of purified Ech2 (0 to 90 μM Fd),[3],17.8 µM
